Assay results reported in patent publication US20200215180A1.

How the values were obtained:
[1] = biological target: Hyperglycosylated Zika exodomain (HX), insect (Tni) cell expressed (Zika virus); assay: ELISA
[2] = biological target: Hyperglycosylated dengue-1 exodomain (HX), insect (Tni) cell expressed (dengue virus serotype 1) (UniProt P27909); assay: ELISA
[3] = biological target: Hyperglycosylated exodomain D3 (from pCRO23), HEK293-expressed (dengue virus serotype 3) (UniProt Q6YMS4); assay: ELISA
[4] = biological target: Hyperglycosylated dengue-4 exodomain (HX), insect (Tni) cell expressed (dengue virus serotype 4) (UniProt P09866); assay: ELISA
[5] = biological target: wild-type insect cell expressed Zika exodomain antigen (Zika virus); assay: ELISA
[6] = biological target: Hyperglycosylated dengue-3 exodomain (HX), insect (Tni) cell expressed (dengue virus serotype 3) (UniProt Q6YMS4); assay: ELISA
[7] = biological target: Hyperglycosylated exodomain D1 (from pCRO21), HEK293-expressed (dengue virus serotype 1) (UniProt P27909); assay: ELISA
[8] = biological target: Hyperglycosylated exodomain D4 (from pCRO24), HEK293-expressed (dengue virus serotype 4) (UniProt P09866); assay: ELISA
[9] = biological target: Hyperglycosylated dengue-2 exodomain (HX), insect (Tni) cell expressed (dengue virus serotype 2) (UniProt P18356); assay: ELISA
[10] = biological target: Hyperglycosylated exodomain Zika (from pCRO28), HEK293-expressed (Zika virus); assay: ELISA
[11] = biological target: Hyperglycosylated exodomain D2 (from pCRO22), HEK293-expressed (dengue virus serotype 2) (UniProt P18356); assay: ELISA
[12] = biological target: VLPs; assay: competition ELISA, 4G2 in solution phase at 10 micrograms per ml

“Aalto Bioreagents anti-Zika antibody AZ1176-0302156-Lot3889” showed an absorbance [1] of 2 absorbance, an absorbance [2] of 0.2 absorbance and an absorbance [3] of 0.1 absorbance. For the same substance, the absorbance [4] was 0.1 absorbance, the absorbance [5] was 1 absorbance and the absorbance [6] was 0.3 absorbance. It also gave an absorbance [7] of 0.1 absorbance, an absorbance [8] of 0.1 absorbance and an absorbance [9] of 0.1 absorbance. It also gave an absorbance [10] of 3.1 absorbance and an absorbance [11] of 0.1 absorbance.

Work on “fusion-loop antibody 4G2 (The Native Antigen Company AbFLAVENV-4G2)” yielded a % inhibition [12] of 80%, an absorbance [1] of 0.1 absorbance and an absorbance [2] of 0.1 absorbance. The absorbance [3] was 0.1 absorbance, the absorbance [4] was 0.1 absorbance and the absorbance [5] was 0.9 absorbance. The absorbance [6] was 0.1 absorbance, the absorbance [7] was 0.1 absorbance and the absorbance [8] was 0.1 absorbance. For the same substance, the absorbance [9] was 0.1 absorbance, the absorbance [10] was 0.1 absorbance and the absorbance [11] was 0.1 absorbance.

For ZKA78 (antibody), the absorbance [1] was 0 absorbance, the absorbance [2] was 0 absorbance and the absorbance [3] was 0 absorbance. For the same substance, the absorbance [4] was 0 absorbance, the absorbance [5] was 1.4 absorbance and the absorbance [6] was 0 absorbance. For the same substance, the absorbance [7] was 0 absorbance, the absorbance [8] was 0 absorbance and the absorbance [9] was 0 absorbance. For the same substance, the absorbance [10] was 0 absorbance and the absorbance [11] was 0 absorbance.

For ZKA64 (antibody), the absorbance [1] was 0.7 absorbance, the absorbance [2] was 0.2 absorbance and the absorbance [3] was 0.1 absorbance. The absorbance [4] was 0.1 absorbance, the absorbance [5] was 0.8 absorbance and the absorbance [6] was 0.2 absorbance. The absorbance [7] was 0.1 absorbance, the absorbance [8] was 0.1 absorbance and the absorbance [9] was 0.2 absorbance. The absorbance [10] was 0.9 absorbance and the absorbance [11] was 0.1 absorbance.

With “ZV67 anti-Zika neutralizing antibody (The Native Antigen Company MAB12125)” the absorbance [1] was 1.5 absorbance, the absorbance [2] was 0.1 absorbance and the absorbance [3] was 0 absorbance. For the same substance, the absorbance [4] was 0.1 absorbance, the absorbance [5] was 1.2 absorbance and the absorbance [6] was 0.1 absorbance. For the same substance, the absorbance [7] was 0.1 absorbance, the absorbance [8] was 0 absorbance and the absorbance [9] was 0.1 absorbance. The absorbance [10] was 1.1 absorbance and the absorbance [11] was 0 absorbance.

“ZV48 anti-Zika neutralizing antibody (The Native Antigen Company MAB12124)” gave an absorbance [1] of 1.1 absorbance, an absorbance [2] of 0 absorbance and an absorbance [3] of 0 absorbance. The absorbance [4] was 0 absorbance, the absorbance [5] was 1.1 absorbance and the absorbance [6] was 0 absorbance. For the same substance, the absorbance [7] was 0 absorbance, the absorbance [8] was 0 absorbance and the absorbance [9] was 0 absorbance. It also gave an absorbance [10] of 1.2 absorbance and an absorbance [11] of 0 absorbance.
